Among the data in paper PMC4260915, “Colorful Protein-Based Fluorescent Probes for Collagen Imaging” (PLoS ONE, 2014) are Kd values, retold here.

B1: mTurquoise2-CNA35 (domain or fragment)
chain: ARDISSTNVTDLTVSPSKIEDGGKTTVKMTFDDKNGKIQNGDMIKVAWPTSGTVKIEGYSKTVPLTVKGEQVGQAVITPDGATITFNDKVEKLSDVSGFAEFEVQGRNLTQTNTSDDKVATITSGNKSTNVTVHKSEAGTSSVFYYKTGDMLPEDTTHVRWFLNINNEKSYVSKDITIKDQIQGGQQLDLSTLNINVTGTHSNYYSGQSAITDFEKAFPGSKITVDNTKNTIDVTIPQGYGSYNSFSINYKTKITNEQQKEFVNNSQAWYQEHGKEEVNGKSFNHTVHNINANAGIEGTVKGELKVLKQDKDTKA
notes: CNA35: domains N1 and N2 of the A-region of Staphylococcus aureus collagen adhesion protein, amino acids 30-344; Order: His-tag, thrombin cleavage site, mTurquoise2, flexible linkage of about 20 amino acids, CNA35; 65.2 kDa; also called FP-CNA35; N-terminal fusion of mTurquoise2 to CNA35; not shown: mTurquoise2, N-terminal, kept
B2: CNA35-mCherry (domain or fragment)
chain: ARDISSTNVTDLTVSPSKIEDGGKTTVKMTFDDKNGKIQNGDMIKVAWPTSGTVKIEGYSKTVPLTVKGEQVGQAVITPDGATITFNDKVEKLSDVSGFAEFEVQGRNLTQTNTSDDKVATITSGNKSTNVTVHKSEAGTSSVFYYKTGDMLPEDTTHVRWFLNINNEKSYVSKDITIKDQIQGGQQLDLSTLNINVTGTHSNYYSGQSAITDFEKAFPGSKITVDNTKNTIDVTIPQGYGSYNSFSINYKTKITNEQQKEFVNNSQAWYQEHGKEEVNGKSFNHTVHNINANAGIEGTVKGELKVLKQDKDTKA
notes: CNA35: domains N1 and N2 of the A-region of Staphylococcus aureus collagen adhesion protein, amino acids 30-344; Order: His-tag, thrombin cleavage site, CNA35, flexible linkage of about 20 amino acids, mCherry; 64.7 kDa; also called CNA35-FP; C-terminal fusion of mCherry to CNA35; not shown: mCherry, C-terminal, kept
B3: mAmetrine-CNA35 (domain or fragment)
chain: ARDISSTNVTDLTVSPSKIEDGGKTTVKMTFDDKNGKIQNGDMIKVAWPTSGTVKIEGYSKTVPLTVKGEQVGQAVITPDGATITFNDKVEKLSDVSGFAEFEVQGRNLTQTNTSDDKVATITSGNKSTNVTVHKSEAGTSSVFYYKTGDMLPEDTTHVRWFLNINNEKSYVSKDITIKDQIQGGQQLDLSTLNINVTGTHSNYYSGQSAITDFEKAFPGSKITVDNTKNTIDVTIPQGYGSYNSFSINYKTKITNEQQKEFVNNSQAWYQEHGKEEVNGKSFNHTVHNINANAGIEGTVKGELKVLKQDKDTKA
notes: CNA35: domains N1 and N2 of the A-region of Staphylococcus aureus collagen adhesion protein, amino acids 30-344; Order: His-tag, thrombin cleavage site, mAmetrine, flexible linkage of about 20 amino acids, CNA35; 64.3 kDa; also called FP-CNA35; N-terminal fusion of mAmetrine to CNA35; not shown: mAmetrine, N-terminal, kept
B4: EGFP-CNA35 (domain or fragment)
chain: ARDISSTNVTDLTVSPSKIEDGGKTTVKMTFDDKNGKIQNGDMIKVAWPTSGTVKIEGYSKTVPLTVKGEQVGQAVITPDGATITFNDKVEKLSDVSGFAEFEVQGRNLTQTNTSDDKVATITSGNKSTNVTVHKSEAGTSSVFYYKTGDMLPEDTTHVRWFLNINNEKSYVSKDITIKDQIQGGQQLDLSTLNINVTGTHSNYYSGQSAITDFEKAFPGSKITVDNTKNTIDVTIPQGYGSYNSFSINYKTKITNEQQKEFVNNSQAWYQEHGKEEVNGKSFNHTVHNINANAGIEGTVKGELKVLKQDKDTKA
notes: CNA35: domains N1 and N2 of the A-region of Staphylococcus aureus collagen adhesion protein, amino acids 30-344; Order: His-tag, thrombin cleavage site, EGFP, flexible linkage of about 20 amino acids, CNA35; 65.0 kDa; also called N-terminal fusion of EGFP to CNA35; not shown: EGFP, N-terminal, kept
B5: LSSmOrange-CNA35 (domain or fragment)
chain: ARDISSTNVTDLTVSPSKIEDGGKTTVKMTFDDKNGKIQNGDMIKVAWPTSGTVKIEGYSKTVPLTVKGEQVGQAVITPDGATITFNDKVEKLSDVSGFAEFEVQGRNLTQTNTSDDKVATITSGNKSTNVTVHKSEAGTSSVFYYKTGDMLPEDTTHVRWFLNINNEKSYVSKDITIKDQIQGGQQLDLSTLNINVTGTHSNYYSGQSAITDFEKAFPGSKITVDNTKNTIDVTIPQGYGSYNSFSINYKTKITNEQQKEFVNNSQAWYQEHGKEEVNGKSFNHTVHNINANAGIEGTVKGELKVLKQDKDTKA
notes: CNA35: domains N1 and N2 of the A-region of Staphylococcus aureus collagen adhesion protein, amino acids 30-344; Order: His-tag, thrombin cleavage site, LSSmOrange, flexible linkage of about 20 amino acids, CNA35; 64.6 kDa; also called FP-CNA35; N-terminal fusion of LSSmOrange to CNA35; not shown: LSSmOrange, N-terminal, kept
B6: tdTomato-CNA35 (domain or fragment)
chain: ARDISSTNVTDLTVSPSKIEDGGKTTVKMTFDDKNGKIQNGDMIKVAWPTSGTVKIEGYSKTVPLTVKGEQVGQAVITPDGATITFNDKVEKLSDVSGFAEFEVQGRNLTQTNTSDDKVATITSGNKSTNVTVHKSEAGTSSVFYYKTGDMLPEDTTHVRWFLNINNEKSYVSKDITIKDQIQGGQQLDLSTLNINVTGTHSNYYSGQSAITDFEKAFPGSKITVDNTKNTIDVTIPQGYGSYNSFSINYKTKITNEQQKEFVNNSQAWYQEHGKEEVNGKSFNHTVHNINANAGIEGTVKGELKVLKQDKDTKA
notes: CNA35: domains N1 and N2 of the A-region of Staphylococcus aureus collagen adhesion protein, amino acids 30-344; Order: His-tag, thrombin cleavage site, tdTomato, flexible linkage of about 20 amino acids, CNA35; 92.5 kDa; also called FP-CNA35; N-terminal fusion of tdTomato to CNA35; not shown: tdTomato, N-terminal, kept
B7: CNA35-mTurquoise2 (domain or fragment)
chain: ARDISSTNVTDLTVSPSKIEDGGKTTVKMTFDDKNGKIQNGDMIKVAWPTSGTVKIEGYSKTVPLTVKGEQVGQAVITPDGATITFNDKVEKLSDVSGFAEFEVQGRNLTQTNTSDDKVATITSGNKSTNVTVHKSEAGTSSVFYYKTGDMLPEDTTHVRWFLNINNEKSYVSKDITIKDQIQGGQQLDLSTLNINVTGTHSNYYSGQSAITDFEKAFPGSKITVDNTKNTIDVTIPQGYGSYNSFSINYKTKITNEQQKEFVNNSQAWYQEHGKEEVNGKSFNHTVHNINANAGIEGTVKGELKVLKQDKDTKA
notes: CNA35: domains N1 and N2 of the A-region of Staphylococcus aureus collagen adhesion protein, amino acids 30-344; Order: His-tag, thrombin cleavage site, CNA35, flexible linkage of about 20 amino acids, mTurquoise2; 65.0 kDa; also called CNA35-FP; C-terminal fusion of mTurquoise2 to CNA35; not shown: mTurquoise2, C-terminal, kept
B8: CNA35-LSSmOrange (domain or fragment)
chain: ARDISSTNVTDLTVSPSKIEDGGKTTVKMTFDDKNGKIQNGDMIKVAWPTSGTVKIEGYSKTVPLTVKGEQVGQAVITPDGATITFNDKVEKLSDVSGFAEFEVQGRNLTQTNTSDDKVATITSGNKSTNVTVHKSEAGTSSVFYYKTGDMLPEDTTHVRWFLNINNEKSYVSKDITIKDQIQGGQQLDLSTLNINVTGTHSNYYSGQSAITDFEKAFPGSKITVDNTKNTIDVTIPQGYGSYNSFSINYKTKITNEQQKEFVNNSQAWYQEHGKEEVNGKSFNHTVHNINANAGIEGTVKGELKVLKQDKDTKA
notes: CNA35: domains N1 and N2 of the A-region of Staphylococcus aureus collagen adhesion protein, amino acids 30-344; Order: His-tag, thrombin cleavage site, CNA35, flexible linkage of about 20 amino acids, LSSmOrange; 64.7 kDa; also called CNA35-FP; C-terminal fusion of LSSmOrange to CNA35; not shown: LSSmOrange, C-terminal, kept
B9: mCherry-CNA35 (domain or fragment)
chain: ARDISSTNVTDLTVSPSKIEDGGKTTVKMTFDDKNGKIQNGDMIKVAWPTSGTVKIEGYSKTVPLTVKGEQVGQAVITPDGATITFNDKVEKLSDVSGFAEFEVQGRNLTQTNTSDDKVATITSGNKSTNVTVHKSEAGTSSVFYYKTGDMLPEDTTHVRWFLNINNEKSYVSKDITIKDQIQGGQQLDLSTLNINVTGTHSNYYSGQSAITDFEKAFPGSKITVDNTKNTIDVTIPQGYGSYNSFSINYKTKITNEQQKEFVNNSQAWYQEHGKEEVNGKSFNHTVHNINANAGIEGTVKGELKVLKQDKDTKA
notes: CNA35: domains N1 and N2 of the A-region of Staphylococcus aureus collagen adhesion protein, amino acids 30-344; Order: His-tag, thrombin cleavage site, mCherry, flexible linkage of about 20 amino acids, CNA35; 64.6 kDa; also called FP-CNA35; N-terminal fusion of mCherry to CNA35; not shown: mCherry, N-terminal, kept
B10: CNA35-EGFP (domain or fragment)
chain: ARDISSTNVTDLTVSPSKIEDGGKTTVKMTFDDKNGKIQNGDMIKVAWPTSGTVKIEGYSKTVPLTVKGEQVGQAVITPDGATITFNDKVEKLSDVSGFAEFEVQGRNLTQTNTSDDKVATITSGNKSTNVTVHKSEAGTSSVFYYKTGDMLPEDTTHVRWFLNINNEKSYVSKDITIKDQIQGGQQLDLSTLNINVTGTHSNYYSGQSAITDFEKAFPGSKITVDNTKNTIDVTIPQGYGSYNSFSINYKTKITNEQQKEFVNNSQAWYQEHGKEEVNGKSFNHTVHNINANAGIEGTVKGELKVLKQDKDTKA
notes: CNA35: domains N1 and N2 of the A-region of Staphylococcus aureus collagen adhesion protein, amino acids 30-344; Order: His-tag, thrombin cleavage site, CNA35, flexible linkage of about 20 amino acids, EGFP; 65.1 kDa; also called CNA35-FP; C-terminal fusion of EGFP to CNA35; not shown: EGFP, C-terminal, kept
B11: CNA35-tdTomato (domain or fragment)
chain: ARDISSTNVTDLTVSPSKIEDGGKTTVKMTFDDKNGKIQNGDMIKVAWPTSGTVKIEGYSKTVPLTVKGEQVGQAVITPDGATITFNDKVEKLSDVSGFAEFEVQGRNLTQTNTSDDKVATITSGNKSTNVTVHKSEAGTSSVFYYKTGDMLPEDTTHVRWFLNINNEKSYVSKDITIKDQIQGGQQLDLSTLNINVTGTHSNYYSGQSAITDFEKAFPGSKITVDNTKNTIDVTIPQGYGSYNSFSINYKTKITNEQQKEFVNNSQAWYQEHGKEEVNGKSFNHTVHNINANAGIEGTVKGELKVLKQDKDTKA
notes: CNA35: domains N1 and N2 of the A-region of Staphylococcus aureus collagen adhesion protein, amino acids 30-344; Order: His-tag, thrombin cleavage site, CNA35, flexible linkage of about 20 amino acids, tdTomato; 93.1 kDa; also called CNA35-FP; C-terminal fusion of tdTomato to CNA35; not shown: tdTomato, C-terminal, kept
B12: CNA35-mAmetrine (domain or fragment)
chain: ARDISSTNVTDLTVSPSKIEDGGKTTVKMTFDDKNGKIQNGDMIKVAWPTSGTVKIEGYSKTVPLTVKGEQVGQAVITPDGATITFNDKVEKLSDVSGFAEFEVQGRNLTQTNTSDDKVATITSGNKSTNVTVHKSEAGTSSVFYYKTGDMLPEDTTHVRWFLNINNEKSYVSKDITIKDQIQGGQQLDLSTLNINVTGTHSNYYSGQSAITDFEKAFPGSKITVDNTKNTIDVTIPQGYGSYNSFSINYKTKITNEQQKEFVNNSQAWYQEHGKEEVNGKSFNHTVHNINANAGIEGTVKGELKVLKQDKDTKA
notes: CNA35: domains N1 and N2 of the A-region of Staphylococcus aureus collagen adhesion protein, amino acids 30-344; Order: His-tag, thrombin cleavage site, CNA35, flexible linkage of about 20 amino acids, mAmetrine; 64.4 kDa; also called CNA35-FP; C-terminal fusion of mAmetrine to CNA35; not shown: mAmetrine, C-terminal, kept

This experiment deals with T1, Rat tail collagen type I (rat, UniProt P02454 152-1207; P02466 86-1125).
T1 construct: collagen alpha-1(I) chain, rat; collagen alpha-2(I) chain, rat; Immobilised as a collagen matrix formed on pH neutralisation; source: bought: Sigma-Aldrich, cat. no; C7661
T1 sequence (P02454 152-1207, chain 1 of 2): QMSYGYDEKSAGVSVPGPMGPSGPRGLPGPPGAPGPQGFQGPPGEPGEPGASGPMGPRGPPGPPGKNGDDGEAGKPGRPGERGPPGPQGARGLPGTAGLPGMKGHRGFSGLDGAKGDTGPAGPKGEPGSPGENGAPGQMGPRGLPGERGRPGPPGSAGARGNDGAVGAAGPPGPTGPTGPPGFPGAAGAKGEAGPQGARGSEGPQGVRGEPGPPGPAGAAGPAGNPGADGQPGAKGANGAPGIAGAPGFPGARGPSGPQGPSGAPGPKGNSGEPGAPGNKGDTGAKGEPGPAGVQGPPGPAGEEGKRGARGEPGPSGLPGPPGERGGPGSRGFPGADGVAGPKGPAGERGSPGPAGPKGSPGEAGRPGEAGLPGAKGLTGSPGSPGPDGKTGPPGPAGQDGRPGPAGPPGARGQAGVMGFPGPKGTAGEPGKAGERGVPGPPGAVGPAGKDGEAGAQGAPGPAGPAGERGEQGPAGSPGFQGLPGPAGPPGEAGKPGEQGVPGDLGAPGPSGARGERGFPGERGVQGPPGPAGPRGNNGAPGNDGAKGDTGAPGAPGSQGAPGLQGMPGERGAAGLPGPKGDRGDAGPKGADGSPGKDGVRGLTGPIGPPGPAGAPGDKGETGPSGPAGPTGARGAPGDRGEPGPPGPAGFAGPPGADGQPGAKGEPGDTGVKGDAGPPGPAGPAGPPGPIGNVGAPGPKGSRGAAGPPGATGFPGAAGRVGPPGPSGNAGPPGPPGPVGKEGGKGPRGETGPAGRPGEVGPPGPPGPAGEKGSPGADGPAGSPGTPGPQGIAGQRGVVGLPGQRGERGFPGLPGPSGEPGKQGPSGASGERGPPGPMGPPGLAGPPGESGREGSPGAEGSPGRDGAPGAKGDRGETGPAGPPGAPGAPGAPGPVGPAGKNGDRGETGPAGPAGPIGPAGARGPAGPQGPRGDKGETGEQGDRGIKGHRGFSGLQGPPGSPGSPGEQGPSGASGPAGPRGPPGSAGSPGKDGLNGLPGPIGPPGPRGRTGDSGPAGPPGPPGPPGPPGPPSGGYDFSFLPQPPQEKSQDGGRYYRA
T1 sequence (P02466 86-1125, chain 2 of 2): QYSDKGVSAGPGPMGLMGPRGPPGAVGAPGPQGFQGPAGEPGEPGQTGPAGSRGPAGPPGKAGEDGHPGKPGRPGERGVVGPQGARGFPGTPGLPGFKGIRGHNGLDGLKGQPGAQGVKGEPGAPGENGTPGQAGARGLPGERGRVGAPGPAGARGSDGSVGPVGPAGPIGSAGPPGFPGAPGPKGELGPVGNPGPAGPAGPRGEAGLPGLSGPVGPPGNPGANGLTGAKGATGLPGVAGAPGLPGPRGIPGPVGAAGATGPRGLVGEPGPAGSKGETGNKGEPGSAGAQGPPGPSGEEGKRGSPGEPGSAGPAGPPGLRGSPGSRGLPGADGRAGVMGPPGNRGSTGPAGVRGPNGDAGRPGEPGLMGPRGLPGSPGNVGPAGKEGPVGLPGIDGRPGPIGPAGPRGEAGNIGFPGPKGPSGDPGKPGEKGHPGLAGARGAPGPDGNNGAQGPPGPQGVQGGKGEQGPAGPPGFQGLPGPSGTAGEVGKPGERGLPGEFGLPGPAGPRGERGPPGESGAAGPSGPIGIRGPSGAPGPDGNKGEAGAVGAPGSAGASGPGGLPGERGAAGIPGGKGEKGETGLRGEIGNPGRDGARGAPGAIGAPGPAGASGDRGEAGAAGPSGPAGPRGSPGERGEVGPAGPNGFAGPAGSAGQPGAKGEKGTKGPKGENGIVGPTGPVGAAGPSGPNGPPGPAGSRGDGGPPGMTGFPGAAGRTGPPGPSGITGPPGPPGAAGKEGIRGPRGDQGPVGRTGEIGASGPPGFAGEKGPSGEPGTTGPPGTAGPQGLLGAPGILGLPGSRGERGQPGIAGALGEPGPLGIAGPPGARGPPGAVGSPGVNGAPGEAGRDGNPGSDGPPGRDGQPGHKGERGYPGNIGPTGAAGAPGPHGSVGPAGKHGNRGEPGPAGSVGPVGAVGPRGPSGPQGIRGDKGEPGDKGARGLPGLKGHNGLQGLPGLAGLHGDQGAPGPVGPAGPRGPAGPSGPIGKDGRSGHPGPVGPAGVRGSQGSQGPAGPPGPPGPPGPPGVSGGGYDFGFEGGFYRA
As to the kind of experiment: solid-phase collagen binding assay (fluorescence of bound probe, plate reader); rat tail collagen type I or BSA immobilised in wells of a 96-well plate, blocked with 2% BSA; probe dilutions 0.1–50 µM, 1–1.5 hours at room temperature; 20 mM HEPES pH 7.2, 150 mM NaCl; apparent overall Kd. Conditions: both partners purified.
Consider B1, for which the Kd is roughly 1000 nM. With B2, the Kd was roughly 1000 nM. As to B3, the Kd was roughly 1000 nM. Under B4 stands roughly 1000 nM; under B5, roughly 1000 nM; under B6, roughly 1000 nM. In the case of B7, the Kd was roughly 1000 nM. As to B8, the Kd was roughly 1000 nM. In the case of B9, the Kd is roughly 1000 nM. As for B10, the Kd was roughly 1000 nM. Regarding B11, the Kd was roughly 1000 nM. As to B12, the Kd is roughly 1000 nM.
